This passage reports protein stability index results from the supplement of paper PMC10567573.

This data set can be described thus: protein stability index of a GFP-peptide fusion (GPS, HEK-293T) (PSI 1-6); higher = more stable. The conditions noted are these: c terminus: a fixed tail appended.

± gives the standard deviation.
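Further: 24-mer peptide tiles fused after GFP, lentivirally expressed, FACS-sorted into six equal bins by GFP/DsRed ratio, decoded by Illumina sequencing, PSI is the read-weighted mean bin number.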

With TSRWSSMEIMEAYSVARQFNLTPP [KCNAB2], the protein stability index came out at 2.57 ± 0.22 (treatment: DMSO) and 2.84 ± 0.084 (treatment: MLN4924 1 uM, 8 h).
Sequence TSTGSAASSGSNSSASSEQGLLGR [SPRY1] displayed a protein stability index (treatment: DMSO) of 5.07 ± 0.28 and a protein stability index (treatment: MLN4924 1 uM, 8 h) of 5.17 ± 0.099.
With TTPSTSSSSSFDPSVFDGLGDLLM [SNAP91], the protein stability index is, setting by setting: (treatment: DMSO) 3.32 ± 0.21; (treatment: MLN4924 1 uM, 8 h) 3.48 ± 0.28.
The like results for TVIHDFLFSLKESPEKFQIEANFP [FAF2] were, in that order, 2.14 ± 0.37 and 2.03 ± 0.19.
As to TVKTHLTSLKTKFPAEQYYRFHEH [TSN], the protein stability index is, setting by setting: (treatment: DMSO) 2.32 ± 0.25; (treatment: MLN4924 1 uM, 8 h) 2.44 ± 0.36.
As to TVQGKKGVYMTDITPQGVAMRAGV [PDZK1], the protein stability index is, setting by setting: (treatment: DMSO) 3.12 ± 0.079; (treatment: MLN4924 1 uM, 8 h) 3.32 ± 0.25.
The matching figures for TWESKNILAVSFAPLVQPSKNDNG [PCMTD1]: 3.3 ± 0.41 and 3.6 ± 0.51.
The like results for TYTYTSRPRALPCQRSRYRDSLTQ [RSPH3] were, in that order, 3.18 ± 0.23 and 3.18 ± 0.14.
The matching figures for VAAELLNHLLESMPLREGSSFQDL [HES6]: 3.11 ± 0.69 and 3.35 ± 0.79.
For the sequence VADRWYSEIKNYNFQQPGFTSGTG [GLIPR2], the protein stability index runs as follows: (treatment: DMSO) 2.61 ± 0.097; (treatment: MLN4924 1 uM, 8 h) 2.93 ± 0.34.
Take VAREDVRESCPPLGLETLKITDFQ [CPXM2]: the protein stability index reads like this: (treatment: DMSO) 3.96 ± 0.48; (treatment: MLN4924 1 uM, 8 h) 4.09 ± 0.33.
On to VASLPLDQSDEGSSSQKEESPSTL [MAGEA10], for which the protein stability index runs as follows: (treatment: DMSO) 5.65 ± 0.14; (treatment: MLN4924 1 uM, 8 h) 5.64 ± 0.14.
As to VAVDFTWEEWQFLSPAQKDLYRDV [ZNF649], the protein stability index turned out to be 2.54 ± 0.73 (treatment: DMSO) and 2.64 ± 0.22 (treatment: MLN4924 1 uM, 8 h).
The matching figures for VCISTKTQCSEEDQCKINKQIYNL [FEM1B]: 3.22 ± 0.19 and 3.33 ± 0.25.
The matching figures for VDAAYANKVELQAKVESMDQEIKF [KRT71]: 4.88 ± 0.41 and 4.87 ± 0.21.
With VDEKGEKVRPSHKRCIVILREIPE [LARP4], the protein stability index was found to be 2.9 ± 0.11 (treatment: DMSO) and 3.07 ± 0.037 (treatment: MLN4924 1 uM, 8 h).
The matching figures for VDLDPTDGKLFPSDGFRDCKKGDP [ELF3]: 5.31 ± 0.1 and 5.2 ± 0.25.
The like results for VFDCLKDGMRNKETLEGREKAFIA [MED27] were, in that order, 3.88 ± 0.28 and 3.91 ± 0.25.
VFRWLAYSYASTHRLMTDARRRVC [CPXM2]: the protein stability index runs as follows: (treatment: DMSO) 2.35 ± 0.32; (treatment: MLN4924 1 uM, 8 h) 2.54 ± 0.32.
The matching figures for VHSSPVSSPSVSGPRRLVSCLSSQ [SPACA3]: 3.38 ± 0.2 and 3.54 ± 0.18.
The like results for VITIKSESTFKNTEISFILGQEFD [FABP4] were, in that order, 2.23 ± 0.53 and 2.4 ± 0.078.
For VKQYLSTTLGPKLASQALTPPPGP [TFE3], the protein stability index stood at 2.92 ± 0.19 (treatment: DMSO) and 2.93 ± 0.3 (treatment: MLN4924 1 uM, 8 h).
The like results for VKSHLLDYVMTTLLFSDKNVNSNL [TRIP13] were, in that order, 3.08 ± 0.36 and 2.79 ± 0.32.
As for VLAIPRRLRVELECEEGELSFYDA [TRIM35], the protein stability index is, setting by setting: (treatment: DMSO) 2.96 ± 0.2; (treatment: MLN4924 1 uM, 8 h) 3.08 ± 0.23.
The matching figures for VLEWGAEGVAGKSGLEKEVQRLTS [FCHSD1]: 4.1 ± 0.16 and 4.09 ± 0.22.
Regarding VLMWLLTYVGALFNGLTLLLMAVV [RTN1], the protein stability index amounted to 2.51 ± 0.29 (treatment: DMSO) and 2.42 ± 0.13 (treatment: MLN4924 1 uM, 8 h).
The like results for VLRSWYEKNKHIFPASRWEPYDPE [FAM50A] were, in that order, 2.87 ± 0.078 and 3 ± 0.21.
For VMFKIGDLGHVTRISSPQVEEGDS [WEE1], the protein stability index runs as follows: (treatment: DMSO) 3.44 ± 0.23; (treatment: MLN4924 1 uM, 8 h) 3.45 ± 0.37.
The matching figures for VNDNAPEVLLASLANPVLESTPVG [PCDHGC5]: 4.55 ± 0.18 and 4.51 ± 0.12.
The matching figures for VNMVDVAKALNRPPTYPTKYFGCE [EIF5]: 2.56 ± 0.19 and 2.45 ± 0.18.
Consider VNRKSVKGNTALHDCAESGSLDIM [FEM1C], for which the protein stability index is 3.7 ± 0.28 (treatment: DMSO) and 3.46 ± 0.47 (treatment: MLN4924 1 uM, 8 h).
In the case of VPQRTAGGDVPERELYIRWLEVAA [MYORG], the protein stability index is 2.62 ± 0.19 (treatment: DMSO) and 2.77 ± 0.3 (treatment: MLN4924 1 uM, 8 h).
With VPVLKPMDLMVEVSPRRIFANGHT [PPP2R2C], the protein stability index is, setting by setting: (treatment: DMSO) 2.59 ± 0.48; (treatment: MLN4924 1 uM, 8 h) 2.75 ± 0.14.
The matching figures for VQILCHTYWEHWTSQGQVRMRLFG [RTP4]: 2.45 ± 0.87 and 2.52 ± 1.1.
The matching figures for VQTPPGGSEVVPVISPMYQLHKPL [IKZF1]: 3.77 ± 0.4 and 3.53 ± 0.23.
The like results for VRDGPFGFSPIIGRFCGQQNPPVI [NETO1] were, in that order, 2.27 ± 0.21 and 2.25 ± 0.19.
